Laboratory results published in patent US20200157236A1 (CELLDEX THERAPEUTICS, published 2020).
Residue numbers refer to the chain shown, from its start.

B1: Ab368 (antibody, V domains shown)
VH: EVQLVQSGAEVKKPGASVKLSCKASGYTFTSYWMHWVRQAPGQGLEWIGYIKPSSGYTKYNQKFKDKATLTADKSTSTAYMELRSLRSDDTAVYYCARDYYGSSSWFAYWGQGTLVTVSS
VL: DIVMTQSQAFMSVTVGEKVTITCKASQNVGTNVAWYQQKPDQAPKALIYSASYRYSGVPSRFSGSGSGTDFTLTISSLEAEDAATYYCQQYNSYPYMYTFGQGTKLEIK
notes: humanized
B2: Ab420 (antibody, V domains shown)
VH: B1 VH with A16S, R84S, D89E
VL: EIVMTQSQATLSTSPGERATLSCKASQNVGTNVAWYQQKPGQAPRALIYSASYRYSGVPARFSGSGSGTDFTLTISSVEPEDFAVYYCQQYNSYPYMYTFGQGTKLEIK
notes: humanized
B3: Ab385 (antibody, V domains shown)
VH: B1 VH with A16S, L20V, T30S, R84S, D89E
VL: B1 VL with D1E, Q8P, A43S
notes: humanized
B4: Ab408 (antibody, V domains shown)
VH: B1 VH with A16S, R84S, D89E
VL: B2 VL with L11M, P15V, A43S, R45K
notes: humanized
B5: Ab382 (antibody, V domains shown)
VH: B1 VH with N61A, F64L, K65Q, D66G, K67R, A68V
VL: B1 VL with D1E, Q8P, A43S
notes: humanized
B6: Ab375 (antibody, V domains shown)
VH: B1 VH with E1Q, K12A, A16T, R38K, A68V, R84S, D89E
VL: B1 VL with D1E, Q8P, A43S
notes: humanized
B7: Ab372 (antibody, V domains shown)
VH: B1 VH with A16S, R84S, D89E
VL: B1 VL
notes: humanized
B8: Ab404 (antibody, V domains shown)
VH: B1 VH
VL: B2 VL with L11M, P15V, A43S, R45K
notes: humanized
B9: Ab413 (antibody, V domains shown)
VH: B1 VH with A16T, Y32S, W33A, H35Q, R38K, R84S, D89E
VL: B2 VL
notes: humanized
B10: Ab390 (antibody, V domains shown)
VH: B1 VH with A16T, P41R, G44R, N61A, K65Q, D66E, K67R, A68V, R84S, D89E
VL: B2 VL with Q8P
notes: humanized
B11: Ab369 (antibody, V domains shown)
VH: B1 VH with K12A
VL: B1 VL
notes: humanized
B12: Ab395 (antibody, V domains shown)
VH: B1 VH with E1Q, K12A, A16S, R38K, R84S, D89E
VL: B2 VL with Q8P
notes: humanized
B13: Ab388 (antibody, V domains shown)
VH: B1 VH with A9P, A16T, P41R, G44R, K67R, R84S, D89E
VL: B2 VL with Q8P
notes: humanized
B14: Ab378 (antibody, V domains shown)
VH: B1 VH with A16T, P41R, G44R, N61A, K65Q, D66E, K67R, A68V, R84S, D89E
VL: B1 VL with D1E, Q8P, A43S
notes: humanized
B15: Ab409 (antibody, V domains shown)
VH: B1 VH with A16S, L20V, T30S, R84S, D89E
VL: B2 VL with L11M, P15V, A43S, R45K
notes: humanized
B16: Ab411 (antibody, V domains shown)
VH: B1 VH with E1Q, K12A, A16T, R38K, A68V, R84S, D89E
VL: B2 VL
notes: humanized
B17: Ab387 (antibody, V domains shown)
VH: B1 VH with E1Q, K12A, A16T, R38K, A68V, R84S, D89E
VL: B2 VL with Q8P
notes: humanized
B18: Ab381 (antibody, V domains shown)
VH: B1 VH with K12A
VL: B1 VL with D1E, Q8P, A43S
notes: humanized
B19: Ab410 (antibody, V domains shown)
VH: B1 VH with A16S, T30S, R38K, N61A, K65Q, D66G, K67R, A68V, R84S, D89E
VL: B2 VL with L11M, P15V, A43S, R45K
notes: humanized
B20: Ab401 (antibody, V domains shown)
VH: B1 VH with A16T, Y32S, W33A, H35Q, R38K, R84S, D89E
VL: B2 VL with L11M, P15V, A43S, R45K
notes: humanized
B21: Ab373 (antibody, V domains shown)
VH: B1 VH with A16S, L20V, T30S, R84S, D89E
VL: B1 VL
notes: humanized
B22: Ab389 (antibody, V domains shown)
VH: B1 VH with A16T, Y32S, W33A, H35Q, R38K, R84S, D89E
VL: B2 VL with Q8P
notes: humanized
B23: Ab399 (antibody, V domains shown)
VH: B1 VH with E1Q, K12A, A16T, R38K, A68V, R84S, D89E
VL: B2 VL with L11M, P15V, A43S, R45K
notes: humanized
B24: Ab392 (antibody, V domains shown)
VH: B1 VH
VL: B2 VL with Q8P
notes: humanized
B25: Ab386 (antibody, V domains shown)
VH: B1 VH with A16S, T30S, R38K, N61A, K65Q, D66G, K67R, A68V, R84S, D89E
VL: B1 VL with D1E, Q8P, A43S
notes: humanized
B26: Ab394 (antibody, V domains shown)
VH: B1 VH with N61A, F64L, K65Q, D66G, K67R, A68V
VL: B2 VL with Q8P
notes: humanized
B27: Ab377 (antibody, V domains shown)
VH: B1 VH with A16T, Y32S, W33A, H35Q, R38K, R84S, D89E
VL: B1 VL with D1E, Q8P, A43S
notes: humanized
B28: Ab374 (antibody, V domains shown)
VH: B1 VH with A16S, T30S, R38K, N61A, K65Q, D66G, K67R, A68V, R84S, D89E
VL: B1 VL
notes: humanized
B29: Ab376 (antibody, V domains shown)
VH: B1 VH with A9P, A16T, P41R, G44R, K67R, R84S, D89E
VL: B1 VL with D1E, Q8P, A43S
notes: humanized
B30: Ab379 (antibody, V domains shown)
VH: B1 VH with E1Q, K12A, R38K
VL: B1 VL with D1E, Q8P, A43S
notes: humanized
B31: Ab396 (antibody, V domains shown)
VH: B1 VH with A16S, R84S, D89E
VL: B2 VL with Q8P
notes: humanized
B32: Ab391 (antibody, V domains shown)
VH: B1 VH with E1Q, K12A, R38K
VL: B2 VL with Q8P
notes: humanized
B33: Ab393 (antibody, V domains shown)
VH: B1 VH with K12A
VL: B2 VL with Q8P
notes: humanized
B34: Ab412 (antibody, V domains shown)
VH: B1 VH with A9P, A16T, P41R, G44R, K67R, R84S, D89E
VL: B2 VL
notes: humanized
B35: Ab380 (antibody, V domains shown)
VH: B1 VH
VL: B1 VL with D1E, Q8P, A43S
notes: humanized
B36: Ab407 (antibody, V domains shown)
VH: B1 VH with E1Q, K12A, A16S, R38K, R84S, D89E
VL: B2 VL with L11M, P15V, A43S, R45K
notes: humanized
B37: Ab383 (antibody, V domains shown)
VH: B1 VH with E1Q, K12A, A16S, R38K, R84S, D89E
VL: B1 VL with D1E, Q8P, A43S
notes: humanized
B38: Ab370 (antibody, V domains shown)
VH: B1 VH with N61A, F64L, K65Q, D66G, K67R, A68V
VL: B1 VL
notes: humanized
B39: Ab405 (antibody, V domains shown)
VH: B1 VH with K12A
VL: B2 VL with L11M, P15V, A43S, R45K
notes: humanized
B40: Ab398 (antibody, V domains shown)
VH: B1 VH with A16S, T30S, R38K, N61A, K65Q, D66G, K67R, A68V, R84S, D89E
VL: B2 VL with Q8P
notes: humanized
B41: Ab397 (antibody, V domains shown)
VH: B1 VH with A16S, L20V, T30S, R84S, D89E
VL: B2 VL with Q8P
notes: humanized
B42: Ab371 (antibody, V domains shown)
VH: B1 VH with E1Q, K12A, A16S, R38K, R84S, D89E
VL: B1 VL
notes: humanized

These binders were tested against T1, purified ALK protein (BLitz, Table 20) (Homo sapiens (Human), UniProt Q9UM73 19-1038, limits assumed) (assay: BLI (BLitz), mAb on Protein A tip, purified ALK in solution).
T1 construct: also called purified ALK proteins
Procedure: Kinetic measurements of the monovalent affinity of the 96 humanized ALK antibody variants (Ab351-Ab446) were collected. Affinity ranking was performed using a BLitz® System (ForteBio, Menlo Park, Calif.). Humanized anti-ALK antibodies were immobilized at 0.5 mg/mL using Protein A tips. Once baseline stability was ensured, purified ALK proteins at 70 μg/mL were added. The resulting kinetic data were fit to a single binding site equation, from which the quoted monovalent KD values were derived.

T1 sequence (Q9UM73 19-1038 limits assumed): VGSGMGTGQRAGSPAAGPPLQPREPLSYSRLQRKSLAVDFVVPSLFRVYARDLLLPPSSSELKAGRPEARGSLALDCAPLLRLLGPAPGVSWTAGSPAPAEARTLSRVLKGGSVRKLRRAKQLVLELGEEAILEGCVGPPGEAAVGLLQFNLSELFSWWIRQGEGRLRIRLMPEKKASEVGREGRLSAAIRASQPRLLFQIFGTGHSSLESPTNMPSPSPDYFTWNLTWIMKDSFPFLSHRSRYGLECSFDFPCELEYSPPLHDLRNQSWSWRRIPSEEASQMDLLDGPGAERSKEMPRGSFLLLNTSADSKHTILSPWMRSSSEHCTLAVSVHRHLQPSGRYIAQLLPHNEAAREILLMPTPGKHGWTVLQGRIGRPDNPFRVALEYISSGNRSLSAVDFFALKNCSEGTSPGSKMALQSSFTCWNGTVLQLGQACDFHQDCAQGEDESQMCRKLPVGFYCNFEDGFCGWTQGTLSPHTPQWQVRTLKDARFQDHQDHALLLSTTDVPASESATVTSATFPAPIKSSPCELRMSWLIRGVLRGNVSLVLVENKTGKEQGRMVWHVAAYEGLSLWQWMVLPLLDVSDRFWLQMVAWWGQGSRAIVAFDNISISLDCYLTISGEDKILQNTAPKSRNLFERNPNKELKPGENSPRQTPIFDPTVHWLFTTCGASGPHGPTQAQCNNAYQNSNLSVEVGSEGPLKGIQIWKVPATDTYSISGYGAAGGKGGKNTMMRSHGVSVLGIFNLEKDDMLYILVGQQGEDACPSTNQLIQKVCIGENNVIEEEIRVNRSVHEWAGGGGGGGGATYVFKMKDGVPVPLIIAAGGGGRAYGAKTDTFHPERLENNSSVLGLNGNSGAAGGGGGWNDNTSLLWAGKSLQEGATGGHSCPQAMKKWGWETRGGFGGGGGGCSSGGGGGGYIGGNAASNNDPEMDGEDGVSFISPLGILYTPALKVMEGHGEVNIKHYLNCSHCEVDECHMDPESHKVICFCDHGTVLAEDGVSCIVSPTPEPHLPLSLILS

Row | Binder | Kd
1 | B1 | 198 nM
2 | B2 | 233 nM
3 | B3 | 626 nM
4 | B4 | 144 nM
5 | B5 | 141 nM
6 | B6 | 140 nM
7 | B7 | 188 nM
8 | B8 | 132 nM
9 | B9 | 1660 nM
10 | B10 | 288 nM
11 | B11 | 210 nM
12 | B12 | 132 nM
13 | B13 | 108 nM
14 | B14 | 167 nM
15 | B15 | 208 nM
16 | B16 | 143 nM
17 | B17 | 158 nM
18 | B18 | 180 nM
19 | B19 | 144 nM
20 | B20 | 1060 nM
21 | B21 | 280 nM

Row | Binder | Kd
22 | B22 | 1550 nM
23 | B23 | 107 nM
24 | B24 | 179 nM
25 | B25 | 257 nM
26 | B26 | 157 nM
27 | B27 | 927 nM
28 | B28 | 253 nM
29 | B29 | 103 nM
30 | B30 | 118 nM
31 | B31 | 176 nM
32 | B32 | 175 nM
33 | B33 | 186 nM
34 | B34 | 111 nM
35 | B35 | 141 nM
36 | B36 | 109 nM
37 | B37 | 132 nM
38 | B38 | 2530 nM
39 | B39 | 195 nM
40 | B40 | 221 nM
41 | B41 | 378 nM
42 | B42 | 130 nM
